Data reported in PMC4822050, “Hemi-methylated DNA opens a closed conformation of UHRF1 to facilitate its histone recognition” (Nature Communications, 2016).
“And” between values parts separate entries of the source, which are not always exact repeats. Equal entries are not always repeated.

B1: TTD of UHRF1 (residues 134–285) (domain or fragment, human, UniProt Q96T88 134-285, looked up)
chain: LYKVNEYVDARDTNMGAWFEAQVVRVTRKAPSRDEPCSSTSRPALEEDVIYHVKYDDYPENGVVQMNSRDVRARARTIIKWQDLEVGQVVMLNYNPDNPKERGFWYDAEISRKRETRTARELYANVVLGDDSLNDCRIIFVDEVFKIERPGE
notes: 15N- or 13C/15N-labelled for the NMR work; also called tandem Tudor domain; the isolated TTD

Columns and labels:
Conditions in all cases: both partners purified
[1] = target: B1; test: ITC; 0.05 mM protein in the cell, 0.5 mM protein or peptide in the syringe, iTC200, 18 °C, 10 mM HEPES pH 8.0, 100 mM NaCl
[2] = target: T1, SRA–Spacer of UHRF1 (residues 414–674) (human, UniProt Q96T88 414-674); test: as above
T1 sequence (looked up): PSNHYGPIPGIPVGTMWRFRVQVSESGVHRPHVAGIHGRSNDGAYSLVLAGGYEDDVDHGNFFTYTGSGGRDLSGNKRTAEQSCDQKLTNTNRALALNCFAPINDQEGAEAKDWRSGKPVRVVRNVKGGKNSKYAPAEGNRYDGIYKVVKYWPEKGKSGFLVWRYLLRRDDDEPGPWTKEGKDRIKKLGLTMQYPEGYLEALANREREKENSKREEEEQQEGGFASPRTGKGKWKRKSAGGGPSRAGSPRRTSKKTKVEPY

[3] = target: T1, SRA–Spacer of UHRF1 (residues 414–674); test: pull-down; GST pull-down: 15 μg GST-tagged protein with 40 μg recombinant protein in 500 μl 20 mM HEPES-NaOH pH 8.0, 100 mM NaCl, 5% glycerol, 0.1% Triton X-100, 4 °C, glutathione resin, Coomassie staining; some panels with increasing hm-DNA
[4] = target: T2, SRA of UHRF1 (residues 414–617) (human, UniProt Q96T88 414-617); test: ITC; 0.05 mM protein in the cell, 0.5 mM protein or peptide in the syringe, iTC200, 18 °C, 10 mM HEPES pH 8.0, 100 mM NaCl
T2 construct: human UHRF1, SRA domain, residues 414–617; also called SET-and-RING-associated domain
T2 sequence (looked up): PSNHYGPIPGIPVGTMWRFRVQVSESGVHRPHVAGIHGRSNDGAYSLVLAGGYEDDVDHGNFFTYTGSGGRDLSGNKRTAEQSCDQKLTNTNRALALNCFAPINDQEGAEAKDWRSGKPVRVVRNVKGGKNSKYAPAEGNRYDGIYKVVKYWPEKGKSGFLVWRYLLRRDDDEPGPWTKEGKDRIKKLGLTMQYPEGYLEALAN

[5] = target: B1; test: ITC; competition ITC: protein pre-incubated with the competing peptide or protein (1:2 molar ratio if not specified) for 10 min, then as a3
[6] = target: T3, TTD–PHD of UHRF1 (residues 134–366) (human, UniProt Q96T88 134-366); test: ITC; 0.05 mM protein in the cell, 0.5 mM protein or peptide in the syringe, iTC200, 18 °C, 10 mM HEPES pH 8.0, 100 mM NaCl
T3 sequence (looked up): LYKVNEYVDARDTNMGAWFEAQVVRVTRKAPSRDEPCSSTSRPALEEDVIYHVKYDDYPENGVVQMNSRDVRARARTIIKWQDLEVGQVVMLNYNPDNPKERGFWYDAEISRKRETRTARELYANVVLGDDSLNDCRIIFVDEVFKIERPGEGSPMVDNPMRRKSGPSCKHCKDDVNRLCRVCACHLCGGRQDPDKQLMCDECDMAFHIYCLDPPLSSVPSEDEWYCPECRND

TTD–PHD R295D/R296D = target: T4, TTD–PHD R295D/R296D (human, UniProt Q96T88 134-366, R295D | R296D); test: as above
T4 sequence (looked up): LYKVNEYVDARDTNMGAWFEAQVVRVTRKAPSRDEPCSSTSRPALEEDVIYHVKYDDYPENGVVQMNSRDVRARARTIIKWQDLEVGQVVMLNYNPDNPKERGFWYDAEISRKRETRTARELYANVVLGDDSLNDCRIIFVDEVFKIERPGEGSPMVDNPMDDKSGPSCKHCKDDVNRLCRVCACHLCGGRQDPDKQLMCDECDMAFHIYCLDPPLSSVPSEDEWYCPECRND

[7] = target: B1; test: NMR solution structure; TTD/Spacer (627–674) 1:1.2, PBS, 0.01% NaN3, pH 7.4, 10% D2O, 20 °C

TGKGKWKRKSAGGGPSRAGSPRR (peptide, UniProt Q96T88 642-664, looked up) [unmodified peptide of Spacer^642–664]
binding result [1]: binds

B1
binding result [2]: binds

B2: GST-tagged TTD of UHRF1 (domain or fragment, human, UniProt Q96T88 134-285, looked up)
chain: LYKVNEYVDARDTNMGAWFEAQVVRVTRKAPSRDEPCSSTSRPALEEDVIYHVKYDDYPENGVVQMNSRDVRARARTIIKWQDLEVGQVVMLNYNPDNPKERGFWYDAEISRKRETRTARELYANVVLGDDSLNDCRIIFVDEVFKIERPGE
notes: pGEX-6p-1 derivative vector; also called GST-TTD
binding result [3]: binds

B3: Spacer^Δ660–664 (domain or fragment, human, UniProt Q96T88 587-674, looked up)
chain: PGPWTKEGKDRIKKLGLTMQYPEGYLEALANREREKENSKREEEEQQEGGFASPRTGKGKWKRKSAGGGPSRATSKKTKVEPY
binding result [1]: binds

B4: Spacer^Δ670–674 (domain or fragment, human, UniProt Q96T88 587-674, looked up)
chain: PGPWTKEGKDRIKKLGLTMQYPEGYLEALANREREKENSKREEEEQQEGGFASPRTGKGKWKRKSAGGGPSRAGSPRRTSKKT
binding result [1]: binds

B5: Spacer^Δ655–659 (domain or fragment, human, UniProt Q96T88 587-674, looked up)
chain: PGPWTKEGKDRIKKLGLTMQYPEGYLEALANREREKENSKREEEEQQEGGFASPRTGKGKWKRKSAGGGSPRRTSKKTKVEPY
binding result [1]: binds

B6: Spacer^Δ665–669 (domain or fragment, human, UniProt Q96T88 587-674, looked up)
chain: PGPWTKEGKDRIKKLGLTMQYPEGYLEALANREREKENSKREEEEQQEGGFASPRTGKGKWKRKSAGGGPSRAGSPRRKVEPY
binding result [1]: binds

B7: Spacer^Δ650–654 (domain or fragment, human, UniProt Q96T88 587-674, looked up)
chain: PGPWTKEGKDRIKKLGLTMQYPEGYLEALANREREKENSKREEEEQQEGGFASPRTGKGKWKRGPSRAGSPRRTSKKTKVEPY
binding result [1]: binds

B8: PHD of UHRF1 (residues 307–366) (domain or fragment, human, UniProt Q96T88 307-366, looked up)
chain: DDVNRLCRVCACHLCGGRQDPDKQLMCDECDMAFHIYCLDPPLSSVPSEDEWYCPECRND
notes: human UHRF1, PHD, residues 307–366; also called plant homeodomain; the isolated PHD
Kd [4]: 26.7 µM

MVDNPMRRKSGPSCKHCK (peptide, UniProt Q96T88 289-306, looked up, also called the Linker) [Linker peptide (289–306)]
Kd [1]: 24 µM

TGKGKWKRKSAGGGPSRAGSPRRTSKKTKVEPY (domain or fragment, human, UniProt Q96T88 642-674, looked up) [Spacer^642–674]
binding result [1]: binds

B9: Spacer of UHRF1 (residues 587–674) (domain or fragment, human, UniProt Q96T88 587-674, looked up)
chain: PGPWTKEGKDRIKKLGLTMQYPEGYLEALANREREKENSKREEEEQQEGGFASPRTGKGKWKRKSAGGGPSRAGSPRRTSKKTKVEPY
notes: also called the Spacer; Spacer peptide
fold decrease in binding affinity in the presence of the Linker [5]: 2 fold | Kd [6]: 10.7 µM | Kd [1]: 1.48 µM and 1.59 µM | stoichiometry N [1]: 1 | Kd (TTD–PHD R295D/R296D): 2.69 µM

B10: Spacer S666D (domain or fragment, human, UniProt Q96T88 587-674, looked up)
chain: PGPWTKEGKDRIKKLGLTMQYPEGYLEALANREREKENSKREEEEQQEGGFASPRTGKGKWKRKSAGGGPSRAGSPRRTDKKTKVEPY
binding result [1]: binds

B11: Spacer S639D (domain or fragment, human, UniProt Q96T88 587-674, looked up)
chain: PGPWTKEGKDRIKKLGLTMQYPEGYLEALANREREKENSKREEEEQQEGGFADPRTGKGKWKRKSAGGGPSRAGSPRRTSKKTKVEPY
binding result [1]: binds

B12: Spacer R649A (domain or fragment, human, UniProt Q96T88 587-674, looked up)
chain: PGPWTKEGKDRIKKLGLTMQYPEGYLEALANREREKENSKREEEEQQEGGFASPRTGKGKWKAKSAGGGPSRAGSPRRTSKKTKVEPY
fold decrease in binding affinity against the wild-type Spacer [1]: ~13 fold

B13: Spacer S651D (domain or fragment, human, UniProt Q96T88 587-674, looked up)
chain: PGPWTKEGKDRIKKLGLTMQYPEGYLEALANREREKENSKREEEEQQEGGFASPRTGKGKWKRKDAGGGPSRAGSPRRTSKKTKVEPY
binding result [1]: binds

B14: Spacer K648D (domain or fragment, human, UniProt Q96T88 587-674, looked up)
chain: PGPWTKEGKDRIKKLGLTMQYPEGYLEALANREREKENSKREEEEQQEGGFASPRTGKGKWDRKSAGGGPSRAGSPRRTSKKTKVEPY
binding result [1]: binds

B15: replication focus targeting sequence (RFTS) of DNMT1 (domain or fragment, UniProt P26358 400-533, looked up)
chain: EALPQHKLTCFSVYCKHGHLCPIDTGLIEKNIELFFSGSAKPIYDDDPSLEGGVNGKNLGPINEWWITGFDGGEKALIGFSTSFAEYILMDPSPEYAPIFGLMQEKIYISKIVVEFLQSNSDSTYEDLINKIET
notes: DNMT1, RFTS domain; also called RFTS^DNMT1
Kd [2]: 7.09 µM

B16: Spacer^Δ642–651 (domain or fragment, human, UniProt Q96T88 587-674, looked up)
chain: PGPWTKEGKDRIKKLGLTMQYPEGYLEALANREREKENSKREEEEQQEGGFASPRAGGGPSRAGSPRRTSKKTKVEPY
binding result [1]: binds

B17: GST-tagged TTD–PHD of UHRF1 (domain or fragment, human, UniProt Q96T88 134-366, looked up)
chain: LYKVNEYVDARDTNMGAWFEAQVVRVTRKAPSRDEPCSSTSRPALEEDVIYHVKYDDYPENGVVQMNSRDVRARARTIIKWQDLEVGQVVMLNYNPDNPKERGFWYDAEISRKRETRTARELYANVVLGDDSLNDCRIIFVDEVFKIERPGEGSPMVDNPMRRKSGPSCKHCKDDVNRLCRVCACHLCGGRQDPDKQLMCDECDMAFHIYCLDPPLSSVPSEDEWYCPECRND
notes: also called GST-TTD–PHD
binding result [3]: binds

B18: truncated Spacer (residues 627–674) (domain or fragment, human, UniProt Q96T88 627-674, looked up)
chain: REEEEQQEGGFASPRTGKGKWKRKSAGGGPSRAGSPRRTSKKTKVEPY
notes: modified pRSF-Duet-1 vector; unlabelled or 15N-labelled in the NMR samples; residues 643–655 were built in the model
binding result [7]: binds
